Measured values taken from paper PMC3962550.

Biological target: epidermal growth factor (EGF) receptor expressed in 32D mouse myeloid cells (32D/EGFR) (UniProt P00533)

EC50 of AR for IL3-independent proliferation of 32D/EGFR cells, without EGF: 8.3 nM
B1: amphiregulin (ligand)
chain: SVRVEQVVKPPQNKTESENTSDKPKRKKKGGKNGKNRRNRKKKNPCNAEFQNFCIHGECKYIEHLEAVTCKCQQEYFGERCGEKSMK
